In article PMC8219681, “Inhibition of MRN activity by a telomere protein motif” (Nature Communications, 2021):
Residue numbers refer to the chain shown, from its start. In names and notes the source's numbering stands.

T1: Xrs2 (S. cerevisiae, FLAG-tagged at the C terminus) (S. cerevisiae, UniProt P33301 1-854)
T1 construct: Xrs2, Saccharomyces cerevisiae; also called Xrs2-FLAG; not shown: FLAG, C-terminal, kept
T1 sequence (looked up): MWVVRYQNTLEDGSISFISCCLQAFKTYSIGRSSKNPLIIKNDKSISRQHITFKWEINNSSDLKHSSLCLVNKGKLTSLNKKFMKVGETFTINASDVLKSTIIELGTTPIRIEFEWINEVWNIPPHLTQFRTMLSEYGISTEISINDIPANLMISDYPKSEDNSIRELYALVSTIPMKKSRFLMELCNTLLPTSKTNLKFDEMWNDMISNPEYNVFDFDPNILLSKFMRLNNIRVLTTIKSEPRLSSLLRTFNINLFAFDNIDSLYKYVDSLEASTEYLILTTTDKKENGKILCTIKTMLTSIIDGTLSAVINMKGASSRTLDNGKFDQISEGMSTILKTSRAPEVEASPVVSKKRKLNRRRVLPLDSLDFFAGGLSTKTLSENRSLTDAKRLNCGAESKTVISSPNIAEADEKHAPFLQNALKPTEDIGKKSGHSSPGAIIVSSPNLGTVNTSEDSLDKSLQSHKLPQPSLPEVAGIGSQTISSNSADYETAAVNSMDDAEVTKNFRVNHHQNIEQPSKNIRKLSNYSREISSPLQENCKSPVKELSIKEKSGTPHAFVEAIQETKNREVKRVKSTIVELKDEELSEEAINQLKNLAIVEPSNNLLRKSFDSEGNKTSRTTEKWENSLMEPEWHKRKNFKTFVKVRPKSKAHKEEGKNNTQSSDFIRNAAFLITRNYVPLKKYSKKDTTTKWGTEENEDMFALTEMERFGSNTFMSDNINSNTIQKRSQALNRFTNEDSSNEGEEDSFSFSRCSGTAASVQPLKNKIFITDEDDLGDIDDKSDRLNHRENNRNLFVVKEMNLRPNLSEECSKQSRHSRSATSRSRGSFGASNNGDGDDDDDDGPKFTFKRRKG

T2: Mre11 (S. cerevisiae, his-tagged at the C terminus) (S. cerevisiae, UniProt P32829 1-692)
T2 construct: Mre11, Saccharomyces cerevisiae; also called Mre11-his; not shown: His tag, C-terminal, kept
T2 sequence (looked up): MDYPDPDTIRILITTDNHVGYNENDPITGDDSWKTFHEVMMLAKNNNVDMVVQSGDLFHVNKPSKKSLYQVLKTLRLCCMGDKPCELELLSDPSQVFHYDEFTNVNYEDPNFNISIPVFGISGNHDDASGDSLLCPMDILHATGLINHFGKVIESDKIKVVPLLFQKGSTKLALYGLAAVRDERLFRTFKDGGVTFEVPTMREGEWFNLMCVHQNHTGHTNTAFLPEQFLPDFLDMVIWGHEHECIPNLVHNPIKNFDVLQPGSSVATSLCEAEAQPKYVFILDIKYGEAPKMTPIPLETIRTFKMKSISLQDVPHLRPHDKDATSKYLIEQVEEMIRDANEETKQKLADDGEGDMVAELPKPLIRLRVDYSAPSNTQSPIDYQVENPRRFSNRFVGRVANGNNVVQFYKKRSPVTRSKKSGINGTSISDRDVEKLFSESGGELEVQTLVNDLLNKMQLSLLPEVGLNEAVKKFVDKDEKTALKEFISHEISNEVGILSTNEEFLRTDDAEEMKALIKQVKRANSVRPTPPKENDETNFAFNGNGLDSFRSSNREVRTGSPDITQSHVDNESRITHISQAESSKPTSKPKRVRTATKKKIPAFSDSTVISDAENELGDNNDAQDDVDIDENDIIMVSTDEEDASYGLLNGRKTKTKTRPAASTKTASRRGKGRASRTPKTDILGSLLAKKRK

B1: MBP-Rif2 (S. cerevisiae Rif2, wild type) (natural protein, UniProt Q06208 1-395, looked up)
chain: MEHVDSDFAPIRRSKKVVDSDKIVKAISDDLEQKNFTVLRKLNLVPIKKSVSSPKVCKPSPVKERVDHVFYQKFKSMALQELGTNYLSISYVPSLSKFLSKNLRSMKNCIVFFDKVEHIHQYAGIDRAVSETLSLVDINVVIIEMNDYLMKEGIQSSKSKECIESMGQASYSGQLDFEASEKPSNHTSDLMMMVMRKINNDESIDHIVYFKFEQLDKLSTSTIIEPSKLTEFINVLSVLEKSNNIAFKVLIYSNNVSISSLLSTSLKKKLNTKYTVFEMPILTCAQEQEYLKKMIKFTFDSGSKLLQSYNSLVTCQLNNKESNLAIFFEFLKVFPHPFTYLFNAYTEIIVQSRTFDELLDKIRNRLTIKNYPHSAYNFKKNQRLPLKLTRKVHDR
notes: Rif2, Saccharomyces cerevisiae, full length, expressed from the vector pFB-MBP-Rif2-his; MBP was cleaved with PreScission protease only after elution from the resin; N-terminal place of MBP is read from the construct's name MBP-Rif2-his; also called ScRif2; not shown: MBP, N-terminal, kept
B2: MBP-Rif2-min (S. cerevisiae Rif2 F8E P10N) (natural protein, UniProt Q06208 1-395, looked up)
chain: B1 chain with F8E, P10N
notes: Rif2, Saccharomyces cerevisiae, full length, F8E P10N, expressed from the vector pFB-MBP-Rif2-min-his; MBP was cleaved with PreScission protease only after elution from the resin; N-terminal place of MBP is read from the construct's name; also called mutant Rif2; not shown: MBP, N-terminal, kept

What was measured:
[1] = molecular target: T1, Xrs2 (S. cerevisiae, FLAG-tagged at the …); assay: pull-down; MBP-Rif2 or MBP-Rif2-min (~5 ug, from Sf9 lysate) immobilised on amylose resin and washed; 1 ug Mre11, 500 ng Rad50 or 1 ug Xrs2 added for 1 h in 50 mM Tris-HCl pH 7.5, 200 mM NaCl, 0.2% NP40, 2 mM EDTA; eluted with 20 mM maltose; Western blot; details: both partners purified
[2] = molecular target: T2, Mre11 (S. cerevisiae, his-tagged at the …); assay: as above; details: both partners purified

Row | Binder | binding result [1] | binding result [2]
1 | B1 | binds | binds
2 | B2 | binds | binds
